T1: human CD20 on the cell surface (human, UniProt P11836 1-297)
T1 construct: whole, on cells; On B-lymphoma lines, primary B cells, K562 CD20 or HEK293 transfectants; also called MS4A1; B-lymphocyte antigen CD20
T1 sequence (looked up): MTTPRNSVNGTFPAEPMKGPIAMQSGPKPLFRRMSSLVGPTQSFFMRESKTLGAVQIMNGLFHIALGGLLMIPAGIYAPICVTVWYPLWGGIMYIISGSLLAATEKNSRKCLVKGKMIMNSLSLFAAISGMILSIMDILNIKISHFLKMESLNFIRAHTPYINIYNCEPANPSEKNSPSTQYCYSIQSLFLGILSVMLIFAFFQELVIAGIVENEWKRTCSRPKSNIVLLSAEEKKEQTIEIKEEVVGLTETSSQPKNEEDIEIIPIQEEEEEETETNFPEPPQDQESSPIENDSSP

B1: C923B38 CD79bxCD20xCD3 trispecific antibody (other)
heavy: QVQLQESGPGLVKPSETLSLTCSVSGASISSFYWSWIRQPADEGLEWIGRISPSGKTNYIPSLKSRIIMSLDASKNQFSLRLNSVTAADTAMYYCARGEYSGTYSYSFDVWGQGTMVTVSSASTKGPSVFPLAPSSKSTSGGTAALGCLVKDYFPEPVTVSWNSGALTSGVHTFPAVLQSSGLYSLSSVVTVPSSSLGTQTYICNVNHKPSNTKVDKKVEPKSCDKTHTCPPCPAPEAAGGPSVFLFPPKPKDTLMISRTPEVTCVVVSVSHEDPEVKFNWYVDGVEVHNAKTKPREEQYNSTYRVVSVLTVLHQDWLNGKEYKCKVSNKALPAPIEKTISKAKGQPREPQVYTLPPSREEMTKNQVSLSCAVKGFYPSDIAVEWESNGQPENNYKTTPPVLDSDGSFFLVSKLTVDKSRWQQGNVFSCSVMHEALHNRFTQKSLSLSPGK
light: DIVMTQSPLSLSVTPGEPASISCRSSESLLDSEDGNTYLDWFLQKPGQSPQLLIYTLSYRASGVPDRFSGSGSDTDFTLHISSLEAEDVGLYYCMQRMEFPLTFGQGTKVEIKRTVAAPSVFIFPPSDEQLKSGTASVVCLLNNFYPREAKVQWKVDNALQSGNSQESVTEQDSKDSTYSLSSTLTLSKADYEKHKVYACEVTHQGLSSPVTKSFNRGEC
chain: EIVLTQSPATLSASPGERVTLSCSASSSVSYMNWYQQKPGQAPRRWIYDSSKLASGVPARFSGSGSGRDYTLTISSLEPEDFAVYYCQQWSRNPPTFGGGTKVEIKGGSEGKSSGSGSESKSTGGSQVQLVQSGAEVKKPGSSVKVSCKASGYTFTRSTMHWVKQAPGQGLEWIGYINPSSAYTNYNQKFQGRVTLTADKSTSTAYMELSSLRSEDTAVYYCASPQVHYDYAGFPYWGQGTLVTVSSEPKSSDKTHTCPPCPAPEAAGGPSVFLFPPKPKDTLMISRTPEVTCVVVSVSHEDPEVKFNWYVDGVEVHNAKTKPREEQYNSTYRVVSVLTVLHQDWLNGKEYKCKVSNKALPAPIEKTISKAKGQPREPQVYTLPPSREEMTKNQVSLWCLVKGFYPSDIAVEWESNGQPENNYKTTPPVLDSDGSFFLYSKLTVDKSRWQQGNVFSCSVMHEALHNHYTQKSLSLSPGKGGSEGKSSGSGSESKSTGGSAIQLTQSPSSLSASVGDRVTITCRASSSVSYIHWFQQKPGKAPKPLIYATSNLASGVPSRFSGSGSGTDFTLTISSLQPEDFATYYCQQWTSNPPTFGQGTKLEIKGGSEGKSSGSGSESKSTGGSQVQLVQSGAEVKKPGSSVKVSCKASGYTFTSYNMHWVRQAPGQGLEWMGAIYPGNGDTSYAQKFQGRVTITADKSTSTAYMELSSLRSEDTAVYYCARSTYYGGDWYFNVWGQGTLVTVSS
notes: Trispecific IgG1: CD79b Fab arm (HC1/LC) plus one chain CD3 scFv-Fc-CD20 scFv; also called CD9B374 / CD3B2030-N106A-scFv-LH-C20B22
B2: CD20 binding arm of C923B169 tested as scFv (scFv)
chain: EIVLTQSPATLSLSPGERATLSCRASLSVSSMHWYQQKPGQAPRLLIYATSNLASGIPARFSGSGSGTDFTLTISSLEPEDFAVYYCQQWIFNPPTFGGGTKVEIKGGSEGKSSGSGSESKSTGGSQVQLVQSGAEVKKPGSSVKVSCKASGYTFSSYNMHWVRQAPGQGLEWMGAIYPGAGDTSYAQKFQGRVTITADESTSTAYMELSSLRSEDTAVYYCARSNYYGSSGWYFDVWGKGTTVTVSS

How the values were obtained:
[1] = target: T2, cynomolgus monkey CD79b antigen (cynomolgus monkey); experiment: SPR
T2 construct: also called cyno CD79b; CD9W1.001

[2] = target: T1, human CD20 on the cell surface; experiment: cell-based binding on CARNAVAL cells

| Binder | Kd [1] | EC50 [2] |
| --- | --- | --- |
| B1 | > 3000 nM | – |
| B2 | – | 16 nM |

— patent US20250043019A1 (Janssen / Centocor, published 2025)
